For test [1], the target named is Bovine spleen trypsin (Sigma) (bovine) (UniProt P00760).
For test [2], the target named is Polymorphonuclear leukocyte elastase from human sputum (EPC Co.; Funakoshi Yakuhin) (human) (UniProt P08246).
Test [3] concerns the target Bovine spleen trypsin (Sigma) (bovine) (UniProt P00760). The source holds these as a separate data set.
Test [4] concerns the target Polymorphonuclear leukocyte elastase from human sputum (EPC Co.; Funakoshi Yakuhin) (human) (UniProt P08246). The source holds these as a separate data set.
Test [5] has as its target Bovine spleen trypsin (Sigma) (bovine) (UniProt P00760). The source holds these as a separate data set.
For test [6], the target named is Polymorphonuclear leukocyte elastase from human sputum (EPC Co.; Funakoshi Yakuhin) (human) (UniProt P08246). The source holds these as a separate data set.
The target in test [7] is Calf pancreatic trypsin (Sigma) (calf (bovine)) (UniProt P00760).
Calf pancreatic trypsin (Sigma) (calf (bovine)), sequence (P00760 24-246): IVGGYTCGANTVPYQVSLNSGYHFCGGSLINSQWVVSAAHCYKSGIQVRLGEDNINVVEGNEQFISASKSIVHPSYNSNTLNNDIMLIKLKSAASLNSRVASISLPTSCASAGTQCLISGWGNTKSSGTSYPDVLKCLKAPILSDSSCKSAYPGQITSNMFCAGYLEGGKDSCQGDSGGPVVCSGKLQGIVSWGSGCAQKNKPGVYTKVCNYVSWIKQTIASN
In test [8] the target is Polymorphonuclear leukocyte elastase from human sputum (EPC Co.; Funakoshi Yakuhin) (human) (UniProt P08246). This is another data set of the same source.
Test [9] deals with Calf pancreatic chymotrypsin (Sigma) (calf (bovine)) (UniProt P00766).
The target of test [10] is Human plasma kallikrein (human) (UniProt P03952).
Test [11] concerns the target Human plasma plasmin (human) (UniProt P00747).
Test [12] has as its target Human plasma thrombin (human) (UniProt P00734).
Test [13] addresses Porcine pancreatic elastase (Sigma) (porcine) (UniProt P00772).

Like-named read-outs stand apart in the source and are kept apart here.

In patent US5851983 one finds IC50, IC50 Value and concentration of inhibitory protein which exhibits a 50% inhibition data, which are given here for five substances.

(Arg^59 -Ala^107) SLPI, sequence (chain): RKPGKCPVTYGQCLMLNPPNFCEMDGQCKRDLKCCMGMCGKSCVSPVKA
Human secretory leukoprotease inhibitor (SLPI), sequence (chain): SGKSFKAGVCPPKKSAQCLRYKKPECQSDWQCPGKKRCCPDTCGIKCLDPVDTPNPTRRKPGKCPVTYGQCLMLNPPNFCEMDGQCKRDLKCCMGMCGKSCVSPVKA
α1 -AT (Sigma), sequence (P01009 25-418 limits assumed): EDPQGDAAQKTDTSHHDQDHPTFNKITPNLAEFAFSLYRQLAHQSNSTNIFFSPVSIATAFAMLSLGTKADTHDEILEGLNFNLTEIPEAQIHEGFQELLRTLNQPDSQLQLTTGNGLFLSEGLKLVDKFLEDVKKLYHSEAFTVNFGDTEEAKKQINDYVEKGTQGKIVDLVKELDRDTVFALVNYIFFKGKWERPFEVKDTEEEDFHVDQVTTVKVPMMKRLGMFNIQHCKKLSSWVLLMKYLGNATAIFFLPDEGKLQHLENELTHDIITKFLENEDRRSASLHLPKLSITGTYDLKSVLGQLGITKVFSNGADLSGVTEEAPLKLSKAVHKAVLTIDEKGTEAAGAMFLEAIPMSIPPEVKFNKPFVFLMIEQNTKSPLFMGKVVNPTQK
Bovine spleen trypsin (Sigma) (bovine), sequence (P00760 24-246): as the sequence (P00760 24-246) above
(Asn^55 -Ala^107) SLPI fragment polypeptide, sequence (chain): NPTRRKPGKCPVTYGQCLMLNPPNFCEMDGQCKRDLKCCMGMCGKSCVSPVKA
(Arg^58 -Ala^107) SLPI, sequence (chain): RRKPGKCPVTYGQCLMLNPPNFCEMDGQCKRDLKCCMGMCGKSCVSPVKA
Porcine pancreatic elastase (Sigma) (porcine), sequence (P00772 27-266): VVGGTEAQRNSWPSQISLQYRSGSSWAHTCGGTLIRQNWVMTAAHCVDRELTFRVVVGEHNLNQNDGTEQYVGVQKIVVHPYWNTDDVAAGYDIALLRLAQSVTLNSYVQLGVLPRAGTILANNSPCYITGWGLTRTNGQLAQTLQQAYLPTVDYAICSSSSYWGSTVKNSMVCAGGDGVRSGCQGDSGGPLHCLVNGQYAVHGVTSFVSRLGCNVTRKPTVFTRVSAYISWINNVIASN
Human plasma plasmin (human), sequence (P00747 97-810 limits assumed): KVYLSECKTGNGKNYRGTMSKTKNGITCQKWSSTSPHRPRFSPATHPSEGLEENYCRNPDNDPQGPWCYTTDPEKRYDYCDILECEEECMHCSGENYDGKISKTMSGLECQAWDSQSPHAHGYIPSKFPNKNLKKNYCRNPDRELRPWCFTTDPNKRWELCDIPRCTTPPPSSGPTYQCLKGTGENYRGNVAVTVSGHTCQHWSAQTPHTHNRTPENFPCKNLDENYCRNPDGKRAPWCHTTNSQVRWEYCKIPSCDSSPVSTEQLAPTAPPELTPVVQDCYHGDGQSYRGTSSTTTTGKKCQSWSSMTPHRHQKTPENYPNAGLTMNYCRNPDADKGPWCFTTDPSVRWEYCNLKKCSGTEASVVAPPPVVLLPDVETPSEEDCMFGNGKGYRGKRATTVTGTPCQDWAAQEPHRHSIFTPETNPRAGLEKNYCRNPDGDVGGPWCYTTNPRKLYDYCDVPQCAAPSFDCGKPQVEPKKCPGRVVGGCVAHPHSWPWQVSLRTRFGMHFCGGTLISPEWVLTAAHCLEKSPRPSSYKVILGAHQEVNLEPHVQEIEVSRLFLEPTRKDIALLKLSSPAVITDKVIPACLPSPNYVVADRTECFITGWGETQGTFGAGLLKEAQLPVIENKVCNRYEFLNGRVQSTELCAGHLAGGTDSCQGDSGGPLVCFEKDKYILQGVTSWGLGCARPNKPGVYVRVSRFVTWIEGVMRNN

Turning to (Arg^58 -Ala^107) SLPI, the figures for the half-inhibitory concentration (IC50) in test [1] and in test [2] were 2 µM and 12 nM, respectively.
On to (Arg^59 -Ala^107) SLPI, for which the IC50 Value in test [3] worked out at 2.5 µM; in [4], 14 nM. Besides, the IC50 – broadly, the concentration that inhibits the measured activity by half – in test [5] worked out at 2 µM; in test [6] it was 12 nM.
For “(Asn^55 -Ala^107) SLPI fragment polypeptide”, the concentration of inhibitory protein which exhibits a 50% inhibition in test [7] was found to be 130 nM; in [8], 1 nM.
Regarding “Human secretory leukoprotease inhibitor (SLPI)”, the IC50 Value in test [3] was 0.24 µM; in test [4] it was 16 nM. Also, the concentration for half-maximal inhibition (IC50) is 0.33 µM in test [5] and 13 nM in [6].
On to α1 -AT (Sigma) (from UniProt P01009), for which the concentration of inhibitory protein which exhibits a 50% inhibition is 2 µM in [9]; 200 nM in test [7]; more than 2 µM in test [10]; more than 2 µM in test [11]; more than 2 µM in test [12]; 300 nM in [13].
